Test results taken from paper PMC10090139.

Molecular target: endogenous KIT of C57 mouse mast cells (UniProt P05532)
Assay: immunoprecipitation with anti-Flag antibody and immunoblot, densitometric analysis by ImageJ
Conditions: n = 4, p = 0.0013 (two-tailed unpaired Student's t-test), parent: est. 1.0, read off a plot

UniProt P05532, sequence (P05532 25-979): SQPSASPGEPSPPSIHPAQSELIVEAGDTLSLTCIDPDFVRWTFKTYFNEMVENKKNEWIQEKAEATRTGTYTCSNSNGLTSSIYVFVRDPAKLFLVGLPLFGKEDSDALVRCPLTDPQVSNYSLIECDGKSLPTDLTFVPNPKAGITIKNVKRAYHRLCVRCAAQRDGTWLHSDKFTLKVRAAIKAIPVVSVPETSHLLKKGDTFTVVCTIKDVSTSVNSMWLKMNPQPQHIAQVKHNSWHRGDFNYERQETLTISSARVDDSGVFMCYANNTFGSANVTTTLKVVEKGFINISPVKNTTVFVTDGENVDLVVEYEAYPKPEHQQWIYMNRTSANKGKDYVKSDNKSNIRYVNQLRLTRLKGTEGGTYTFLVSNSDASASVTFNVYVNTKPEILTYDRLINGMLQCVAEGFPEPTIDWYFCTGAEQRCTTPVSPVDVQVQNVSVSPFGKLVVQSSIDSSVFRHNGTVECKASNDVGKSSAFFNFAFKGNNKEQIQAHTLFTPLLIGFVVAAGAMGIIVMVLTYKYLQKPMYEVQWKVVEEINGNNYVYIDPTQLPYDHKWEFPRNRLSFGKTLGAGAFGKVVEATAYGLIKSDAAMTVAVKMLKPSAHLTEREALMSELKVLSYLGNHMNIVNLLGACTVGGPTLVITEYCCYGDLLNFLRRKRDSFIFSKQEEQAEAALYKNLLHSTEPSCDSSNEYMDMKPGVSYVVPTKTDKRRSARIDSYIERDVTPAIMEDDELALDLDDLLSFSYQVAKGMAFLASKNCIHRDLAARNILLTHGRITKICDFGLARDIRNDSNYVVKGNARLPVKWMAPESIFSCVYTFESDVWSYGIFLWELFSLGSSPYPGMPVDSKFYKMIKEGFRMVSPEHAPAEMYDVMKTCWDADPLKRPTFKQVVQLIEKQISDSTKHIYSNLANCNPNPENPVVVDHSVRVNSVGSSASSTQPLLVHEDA

ratio to parent: 0.45
Substance: wild-type MCEMP1 with carboxyl-terminal Flag, stably expressed in C57 mouse mast cells (from UniProt Q8IX19) YF
